Test results taken from the DeepSol protein solubility set.

Assay: soluble on expression in E. coli; label from the status in PepcDB or PDB records
In the case of “MGSDKIHHHHHHMTPTMSNIATLDDVRYQEHILQGVSRTFALTIPQLPPALREVVGNAYLLCRIVDTVEDDSALTLEQTRELAEMFIEVVSGTVEAETFARALYPLLSEHTIPAEHDLIKHTPSVIRMTHSFNPVQRQALERCIRIMGQGMAAYQESESLSGLENLAEMDRYCYHVAGVVGEMLTELFCDYSPEINQHKPALMQLSVSFGQGLQMTNILKDIWEDRKRGACWLPRDIFLQEGFDLNDLQPGCPERGFHAGLGTLIGIAKTHLQNALAYTCLIPSHEAGVRRFCLWAIGMAVLTLNKINHKRDFITGREVKISRRSVRATVLITSLLASQDWALKKIFAISSRNLPEVQIARS”, the “soluble on expression in E. coli” value is reported as “not soluble”. In the case of “MGSDKIHHHHHHMTQELTFSIKSLRFDEDYRPAANTRNTTNFANLARGQRRQENLRNTLAMINNRFNDLAHWDNPKRDRYAVELDIISVEMKIGERDTGDAFPLIEILQPSILDQTTGARIDGIAGNNFSSYVRDYDFSVLLPAHNQDTSSFSLPEGFGSLHGTLFKQFVNSDTYTARFAKPPVICISVSSSKVYHRTGNRHPILGVEYRQDAFSLTDQYFEKMGLQVRYFMPPNSVAPLAFYFLGDLLNDYTNLELIGTISTMETFQKIYRPEIYNANSAAGTIYQPSLKHQDYSATQIVYDRQERSQLAVTQGKFTQEHFIKPYGDILEQWASSHAFSSTPTQDIAHHE”, the “soluble on expression in E. coli” value is reported as “not soluble”. For “MGSDKIHHHHHHMTQPFIPEQEYKRTDLHKQYGGNAQSGISNCANYPYIFIFSGVTGKQHGYKDGWENPNVFEYTGEGQMGDMSFTRGNLALRDHIDNGKQVFLFQYQRSGIVKYICELEFYDTDYFPTHDSSKQLRVGIRFFLKRKGAILPSVKELNQSTDFLAAESIPFYGIDSIKETSRKGEVNLRVGQGAYRKSIIHHWQYKCAVTGFDKLNLLNASHIHPWKDATDKERLDVNNGILLSPTYDALFDKHLISFENDGKIILSDTIHFSAYQKIGVTGKEKIKELNSNSILYIEKHRHLLLKY”, the “soluble on expression in E. coli” value was “not soluble”. In the case of “MGSDKIHHHHHHMTQPFKDAISICKTILRNGYDAYVVNMRLQSELMAEDKRMEIDLACECDFDEIARLFPNATRSDEEGVLAMLEEGGVAHRFYLTDTEESSYPDRTLMRITPHMVARLQALGKAHSSLTLPYGAAAPHDSDDFESFDKGIIRLRGLPDETLRRNYLLAVRAIRYAANLDMEIDPVTWIAIVRSAGRVLDYVPVSDIVAEWQMVEAETMWKFVRLLFDAQLLHGLLPEVAALARVRQSRNDSGDTETVLDHTIECMRHYPEEGFHHDWYGTLAMLFHDVGKLFTADFHDGQWTFYQHHRVGAKVTRRLLHRLHLPAQEVDLICHLVRHHMRFHFMLTDKGIRRFAALDEYPRLMEMARADIKARDGSYTYFNHNQKYLERAATPEQMLEPLLNGNEIMQHTGLHPGPQVGLIRDALLNAQVTGAVADVNDAVAFIKEYKRQYFS”, the “soluble on expression in E. coli” value is reported as “not soluble”. In the case of “MGSDKIHHHHHHMTQQVINSTSKNHLSPLENQKRYRVVLVHPSAGVNWSGGSEIFAIELARHLNSYFNVELLSGADCGSFSFPSGGISRTQAFNIVRHPLISKLLSRFASHPEIVIEHLSNFFPCAIQLLTKSADLIFPCNDYGGMAMAAFVRAIKGTPILFTEHVGLLGGGKSLTRNLRFHPDQLVVFSEAMAEFVRSVQPQQKVSIIPNGVDINRFTPVGNYINFGLPKPIVLCVASLKRHSHKRIGLAMEAVARLPQISLLLCGDGIDRDYFQAKGDELLGKERFKIQSFPYEQMPTVYRSADVFTLPSIDEPFGLAYVEAMASGLPVIATDDEMRRQIVGDAGRLCDVTNPDIYAAAIREILTQDWQVRARQKALGFSWENIALRYRELILKTIQGDQQNH”, the “soluble on expression in E. coli” value is reported as “not soluble”. With “MGSDKIHHHHHHMTQRTFTPPWWARNPHVQTILPVLTKVNKPALTRQRLELEDGDFIDLDWLAKPTQTAPTQIEPIVVLVHGLEGSADSHYARRLLTLLDDHKVAALVHHHRSCSGVTNRLARSYHSGDTQDLHTTLSQLRRDYPDSPLLAVGYSLGGNVLTKYMGEHGSDSLVDRAVVISAPLQLGACAKRLRHGFSKVYQSYLIKQLQQKVRDKLALPDLSAQMPVTQAEVESLTTFHLFDDRVTAPLHGFDGVEDYYRRASGLPYLSQVAKPTLVIHAKDDPFMTDEVIPTQEALSPQVTYELHPQGGHVGFIDGGHPFKPRYYLEQRIVHFLLEA” the “soluble on expression in E. coli” value was “not soluble”. For “MGSDKIHHHHHHMTREKSSYAVQTVEKALDILETLTDESRHATLPYLAEKLDLSRNKAFRLLATLESKGLVERDETSGVYRLGISSVELAQRLLNSTSLIRHAHPIMERLARKHDEAVYIAVLKGDEVLFLDMVDCEQAIKTAPLVGRRFPFFSNAAGKAIRALESTDLLDRFLKKRGRNGGPFDPAALQQELKAVREHGVAVDFDGLGEGIVSVAVAVRDYAGKVIGALTMLGPSFRMMASRMENEIIPSLREGAEILSMKFGYAKL”, the “soluble on expression in E. coli” value was “not soluble”. For “MGSDKIHHHHHHMTSARRMLIDANTTPFYHVINRCVRRAFLCGEDKLTGRSYEHRRGWIVDKIKALSAIFCIDICAYAVMSNHYHLVLKIDVEKAKSLTQKDIISRWCQITKGHAIATKYMNGDALIEGERMLLDALIAEWHERLSSISWFMRCLNEEIARKANREDECKGAFWEGRFKSQALLDEQALLACMMYVDLNPIRAGIADSLQSSDFTSIQERMNSLNTHSIAPKLAKITVDNTLSIPHKSLAKFEGATHIHQQTGIPFHFADYLELIDWTGRAIRHDKKGFIDNLRPKLLNELGIASDAWLLSAKEFRRQYSGVSGRWDAMCAFKHKQGGKWCRGKSHSQALHPEQINGLTLR”, the “soluble on expression in E. coli” value was “not soluble”. With “MGSDKIHHHHHHMTSILPLPDPQPSDATNTDTSSLNWEEELDSAIFSFEDIQAELNYKQAQSALRNLVGNIDLSSQEKAGLESEIADLETMLGKLDSMVVQIAAFGMVGRGKSSLLNALVGESVFETGPLHGVTRAAQRVNWRISEEAIGETERALRVTLPSVGRSQVELIDTPGLDEIDGETRTALAEQIAKQADLILFVISGDMTKIEHEALSQLREAGKPIILVFNKVDQYPEADRMAIYQKIRDERVRELLTPLEIVMAAASPLVKTAVRRPDGSRGVQVRTGNAQVAELQVKILEILQREGKALVALNTMLFADNVNEQLVQRKLMIREQNANQLIWKAVMTKAVAIALNPVTVVDILSSIVIDVSLILGLSKLYGIPMTEAGAVQLLQKIALSMGGIGVSELLANLGLSGLKTLLGISATATAGVAIGPYISVALTQAGVAGVSSYAIGQVTTVYLANGATWGPDGPKAVINRILSTLDENSILNRIKDELQVKLRRE” the “soluble on expression in E. coli” value was “not soluble”. With “MGSDKIHHHHHHMTSSPTSTQESSTSWYLLLQQLIDGESLSRSQAAELMQGWLSEAVPPELSGAILTALNFKGVSADELTGMAEVLQSQSKMGTGENYSQLPITNSPFSIIDTCGTGGDGSSTFNISTAVAFVAAAYGVPVAKHGNRSASSLTGSADVLEALGVNLGASPEKVQAALQEVGITFLFAPGWHPALKAVATLRRTLRIRTVFNLLGPLVNPLRPTGQVVGLFTPKLLTTVAQALDNLGKQKAIVLHGRERLDEAGLGDLTDLAVLSDGELQLTTINPQEVGVTPAPIGALRGGDVQENAEILKAVLQGKGTQAQQDAVALNAALALQVAGAVPLLDHAQGVSVAKEILQTGTAWAKLAQLVYFLGN” the “soluble on expression in E. coli” value was “soluble”. With “MGSDKIHHHHHHMTSYVLTVSCPSKRGIVAALSGYLAEMGCNIVDSSQFDDLDTDRFFMRVSFISEQGASREKIEAGLAPIVDNFQMEIGLYDSTERVKVLLMVSRFGHCLNDLLYRWKIGALPIDIVGVVSNHFDYQKVVVNHDIPFHHIKVTKDNKPQAEAQLMELVQQTGTELIVLARYMQVLSDAMCQKMSGKIINIHHSFLPSFKGANPYKQAFERGVKLIGATAHYVTADLDEGPIIEQDVARVTHAQNAEDYVSIGRDVESQVLARAIHAHIHHRTFINGNKSVVFPASPGSYASERMG” the “soluble on expression in E. coli” value was “not soluble”. For “MGSDKIHHHHHHMTTLSDVAKEANVSKMTVSRVINHPEQVTPELRAMVEKAMEKLNYHPNSIAQALVNNRSNVVKFVTLEDIDTTEPYYTNLLFGFARGLNAKQYALQLVVDPTRIEKGRADGYLITGARNEDYDMFDKLDKPFVLFGENHRGYDFVDTDNQTAEKMATQYALDRLYKHIIFIGIDIKEPFEYSREAGYINTLQQHRLIPQIYRVSNHSHAAQKVIHEHFKEFKKDTCFICASDRIAVGVVRQLQDERARIPEDFGVIGFDGVFLDQVSNPKLTTIKQPIFEMGKMLAKMLLQKIDQSGSPQGELMVKPQLIRRETTR”, the “soluble on expression in E. coli” value was “not soluble”. In the case of “MGSDKIHHHHHHMTVSQVSTGTGLGTRHVAFDWGGVFTVGTFDGRSTQNVAERSGVPVEKVRESYFRHIRQLEVGAWTLPQFWETVQQETGMTLPYADFEALYLGSIHDNAPMYTTLAALPRSVRVGLLSNNYPVVSEHLGRDPRFARFDALVFSNEIGHKKPAPEAFAALEQKMGLPAAQVAFVDDVQENIDAAGAFGFHGILYHHDAHERFEQELKEWLRG”, the “soluble on expression in E. coli” value is reported as “not soluble”. In the case of “MGSDKIHHHHHHMTWHEVNDVIVITLPEIFDMNANLGYLTREKNECMYEIENNIITKVIAIGEIRSLVQVSVINNKQMIVQFLNDSRPVEQWKREEIVKYIHEWFDLDNDLTPFYEMAKADPLLKMPARKFYGLRVIGIPDLFEALCWGVLGQQINLAFAYSLKKQFVEAFGDSIEWNGKKYWVFPPYERIARLTPTDLADIKMTVKKSEYIIGIARLMASGELSREKLMKMNFKDAEKNLIKIRGIGPWTANYVLMRCLRFPTAFPIDDVGLIHSIKILRNMNRKPTKDEILEISVPWKEWQSYATFYLWRVLY”, the “soluble on expression in E. coli” value is reported as “not soluble”. In the case of “MGSDKIHHHHHHMTWKSVNFDWNHIRAFLVTAEEGTLSAAAKALGLTQPTLSRQVSALETELCITLFERVGQRLVLTSSGLKLLEHARGMGDAALEFSLAVTGQSQKIEGSVIVSAGELTAAYMLPKIISKLRREEPGIDIEVVVTNEASDLKRREADIAIRSFHPTQNDLIAKKIGEEVIWLYGTPEYLDQLPTIPSFSELKDIQIIGFDRSNSLTDVLNKQGWQLSKKNFSLITSFQLLQLALCKEGQGVIFYPEQMGDQEPNLVRAYEHLGPVMKLPVWLVCHQELRTSLRVRRVFDFIATELSDNFY”, the “soluble on expression in E. coli” value is reported as “not soluble”. For “MGSDKIHHHHHHMTYIALGMAAIGRPHYINIKTIDSPKDLTKAELHAHATAVLDAAYAMGIRHIDTAPGYGIAEEILIDWLRRSGHEDMTVSTKWGYTYTANFEKNPLQHEVKEHSLHVLQQQWLYSRQLLPPLNMYQIHSATSDSGVLNNQGVLDKLFELKEQFGIEIGLTTSGLTQNATIQQALKITNQGKPLFTIFQVTYNVFEQSIADSVALLKNQGARIIIKEGLANGRIFTCADFPQYAPAYALLERLAGKYHVGVDAVALRFCIDALRPLYVLSGAATIVQLKENLLAETFTLQSEELEELKSIHVASEAYWNERKQLKWN”, the “soluble on expression in E. coli” value was “not soluble”. In the case of “MGSDKIHHHHHHMTYKPKYDNLMENPKIRRWFENLKAKSILTATVYRRTLGYYCELEKTTPEQLLTDMEKLEFRDNFLDFVRRLEKEGKAGSYIVRYKKVLRSWAKFNGIDIKLDVNIANENESPTLDNERVPSKEELSRLLRKATSRGRVSIPIMAFSGFRPETLGNYEGTDGLRLGDIKELKISDEIEFTKIPATIMVKTRLSKARNQYFSFIGEEGITYIKEYLEERKKNGEELTYESPLLQFDVRGTKKNDFMRTMLVTRDIREAITTAGLKMRPYVLRAYFSTALDIAESKGLISHPWRQFIMGHKGDIEARYSTNKRLPPDMIEEMRESYRKCLKFLETRISDVSEDNAKLFLQQQLLSAVGYKQEEIDKLDLSSVSNEDFQQLLRDKVAGAMSDNGAKQKVIPVNEIEQYISDGYDFEAVLPNGKAVMRLRF”, the “soluble on expression in E. coli” value is reported as “not soluble”. With “MGSDKIHHHHHHMVARRRLDAELVRRKIARSREHAVEMIRGRRVFVAGMLALKPATVVEPEVSIRVEEDASEDWASRGAHKLLGALESFEPLGLKVKGRRVLDAGASTGGFTDVLLRREASEVVAVDVGYGQLIWRLQNDDRVRVVDRTNIRYMTLEDTGGECDMMVGDLSFISLKLTLPAIAKVLSDGADLLPMVKPQFEVGKDRLGSGGVVRSPELRAEVTADVAKFAATLGLSLKHVVASPLPGPSGNVEYFLWLVKDGGASMPDDQQLSAMIDTAVKEGPQ” the “soluble on expression in E. coli” value was “not soluble”.
